The values that follow come from the supplement of paper PMC7125110.

The labels stand for the following.
B1: glmS ribozyme (parent)
chain: AUAAAAGCGCCAGAACUACAGAAAUGUAGUUGACGAGGAGGAGGUUUAUCGAAUUUUCGGCGGAUGCCUCCAAA

Common to all, as to conditions: with glucosamine-6-phosphate
In data set [1] the parent is B1. As to the kind of experiment: self-cleavage kobs at 40 uM GlcN6P; higher = faster cleavage; RNA array. The method, boiled down:
(§1)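 E. coli RNA polymerase transcribed barcoded ribozyme variants in situ on sequenced MiSeq chips, which were tracked via a hybridised Cy3 probe at 37 °C. Tiles were imaged over ~14 h after glucosamine-6-phosphate (40 μM to 10 mM) in HEPES/KCl/Mg(OAc)2 buffer was flowed in. Normalised per-tile medians were fit to one- or two-exponential decays for kobs, and kcat and KM came from weighted Michaelis–Menten fits.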

In data set [2] the parent is B1. As to the kind of experiment: self-cleavage kobs at 160 uM GlcN6P; higher = faster cleavage; RNA array. The essentials: as §1
In data set [3] the parent is B1. The data set is described as follows: self-cleavage kobs at 640 uM GlcN6P; higher = faster cleavage; RNA array. The essentials: as §1
In data set [4] the parent is B1. The data set is described as follows: self-cleavage kobs at 2500 uM GlcN6P; higher = faster cleavage; RNA array. The method, boiled down: as §1
In data set [5] the parent is B1. The data set is described as follows: self-cleavage kobs at 10000 uM GlcN6P; higher = faster cleavage; RNA array. The method, boiled down:
as §1

± gives the standard error. Variants at the floor of the assay were thinned out.

Turning to AUAAAAGCGCCAGAACUACAGAAAUGUAGUUGACGAGGAGGAGGUCUGUAGAAUUUUCGGCGGAUGCCUCGAAA, the “self-cleavage kobs at 40 uM GlcN6P” value with glucosamine-6-phosphate [1] was below 1e-05 s⁻¹.
The same measure, in the same setting: for AUAAAAGCGCCAGAACUACAGAAAUGUAGUUGACGAUGAGGAGGUUUAUCGAUUAUUCGGCGGAUGCCUCCAAA the value was below 1e-05 s⁻¹; for AUAAAAGCGUCAGAACUACAGAAAUGUAGUUGACGAGGAGGAGGUUUAUCGAAUUUUCGGCGGGUGCAUCCAAA, below 1e-05 s⁻¹.
Take AUAAAAGCUCCAGAACUACAGAAAUGUAGUUGACGAGGAGCUGAUUUAUCGAAUUUUCGGCGGAUGCCUCCAAA: the “self-cleavage kobs at 40 uM GlcN6P” value in the data set with glucosamine-6-phosphate [1] was below 1e-05 s⁻¹. In addition, the “self-cleavage kobs at 160 uM GlcN6P” value in the data set with glucosamine-6-phosphate [2] is below 1e-05 s⁻¹. Also, in the data set with glucosamine-6-phosphate [3], the “self-cleavage kobs at 640 uM GlcN6P” value was below 1e-05 s⁻¹. In addition, in the data set with glucosamine-6-phosphate [4], the “self-cleavage kobs at 2500 uM GlcN6P” value is below 1e-05 s⁻¹.
In the case of AUAAAAGCGCCAGAACUACAGAAAUGUAGGUGACGAGGAGGAGGUUUAUCGAAUUUUCGGCGGAUACCUCCAAA, the “self-cleavage kobs at 40 uM GlcN6P” value with glucosamine-6-phosphate [1] was determined as 0.000144 ± 3.9e-05 s⁻¹.
AUAAAAGGGCCAGAACUACAGAAAUGUAGGUGACGAGGAGGAGGUUUAUCGAAUUUUCGACGGAUGCCUCCAAA: the “self-cleavage kobs at 40 uM GlcN6P” value with glucosamine-6-phosphate [1] is below 1e-05 s⁻¹. Besides, the “self-cleavage kobs at 10000 uM GlcN6P” value with glucosamine-6-phosphate [5] is below 1e-05 s⁻¹.
Turning to AUAAAAGCGCCAGAACUACAGAAAUGUAGUUGACAAGGAGGAGGAUUAUCGAAUUUUCGGCGGAUGCCUCAAAA, the “self-cleavage kobs at 40 uM GlcN6P” value in the data set with glucosamine-6-phosphate [1] is below 1e-05 s⁻¹.
Take AUAAAAGAGCCAGAACUACAGAAAUGUAGUUGACGAGGCGGAGGUUUAUCGAAUUUUCGGCGGAUGCCUCCAAA: the “self-cleavage kobs at 40 uM GlcN6P” value with glucosamine-6-phosphate [1] was below 1e-05 s⁻¹. In the data set with glucosamine-6-phosphate [2], the “self-cleavage kobs at 160 uM GlcN6P” value is below 1e-05 s⁻¹. In addition, in the data set with glucosamine-6-phosphate [3], the “self-cleavage kobs at 640 uM GlcN6P” value is below 1e-05 s⁻¹. Moreover, in the data set with glucosamine-6-phosphate [5], the “self-cleavage kobs at 10000 uM GlcN6P” value is below 1e-05 s⁻¹.
As for AUAAAAGGGCCAGAACUACAGAAAUGUAGUCGACGAGGGGGAGGUUUAUCGAAUUUUCGGCGGAUGCCUCCAAA, the “self-cleavage kobs at 40 uM GlcN6P” value with glucosamine-6-phosphate [1] is below 1e-05 s⁻¹.
As to AUAAAAGCGCCAGAACUACAGAAAUGUAGUUGACGAGGAGGAGGUUUAUCGAAUUUUAUUCGGAUGCCUCCAAA, in the data set with glucosamine-6-phosphate [1], the “self-cleavage kobs at 40 uM GlcN6P” value was below 1e-05 s⁻¹. The “self-cleavage kobs at 10000 uM GlcN6P” value in the data set with glucosamine-6-phosphate [5] is below 1e-05 s⁻¹.
For AUAAAACCGCCAGAACUACAGAAAUGUAGUUGACGAGGAGGAGGUUUAUCGAAUUUUCCGCGGAUGCCUCCAAA, the “self-cleavage kobs at 40 uM GlcN6P” value with glucosamine-6-phosphate [1] was below 1e-05 s⁻¹. In the data set with glucosamine-6-phosphate [2], the “self-cleavage kobs at 160 uM GlcN6P” value was below 1e-05 s⁻¹. The “self-cleavage kobs at 640 uM GlcN6P” value with glucosamine-6-phosphate [3] is below 1e-05 s⁻¹. Moreover, the “self-cleavage kobs at 2500 uM GlcN6P” value with glucosamine-6-phosphate [4] was below 1e-05 s⁻¹. Further, the “self-cleavage kobs at 10000 uM GlcN6P” value in the data set with glucosamine-6-phosphate [5] was below 1e-05 s⁻¹.
Consider AUAAAAGCGCCAGAACUACAGAAAUGUAGUUGACCAGGAGGAGGUGUGUCGAAUUUUCGGCGGACGCAUCCAAA, for which the “self-cleavage kobs at 40 uM GlcN6P” value in the data set with glucosamine-6-phosphate [1] is below 1e-05 s⁻¹.
Still for that read-out and setting: for AUAAAAGCGCCACAACUACAGAAAUGUAGUUGACGAGGAGGAGGUUUAUCGAAUUUUCGGAGGAUGCCUCUAAA the value was below 1e-05 s⁻¹; for AUAAAAGCGCCAGAAUUACAGAAAUGUAGUUGAUGAUGAGGAGGUUUAUCGAAUUUUCGGCGGAUGCCUCCAAA, below 1e-05 s⁻¹.
In the case of AUAAAAGCGCCAGGACUACAGAAAUGUAGUUGACGAGGAGGAGGUUUAUCGAAUUUUCGGCGGAUGCUUCCAAA, the “self-cleavage kobs at 40 uM GlcN6P” value in the data set with glucosamine-6-phosphate [1] was 0.000235 ± 1.9e-05 s⁻¹. Also, the “self-cleavage kobs at 160 uM GlcN6P” value with glucosamine-6-phosphate [2] is 0.000503 ± 6.4e-05 s⁻¹. Moreover, in the data set with glucosamine-6-phosphate [3], the “self-cleavage kobs at 640 uM GlcN6P” value was 0.00222 ± 0.00018 s⁻¹. For the same variant, in the data set with glucosamine-6-phosphate [4], the “self-cleavage kobs at 2500 uM GlcN6P” value worked out at 0.00412 ± 0.00051 s⁻¹. In addition, the “self-cleavage kobs at 10000 uM GlcN6P” value with glucosamine-6-phosphate [5] came to 0.0159 ± 0.0026 s⁻¹.
Take AUAAAAGCGCCAGAACUACAGAAAUGUAGUUGACGAAGAGGAGGUUUAUCAAAUUUUCGGCGGAUGCCUCCAAA: the “self-cleavage kobs at 40 uM GlcN6P” value in the data set with glucosamine-6-phosphate [1] was below 1e-05 s⁻¹. Also, the “self-cleavage kobs at 640 uM GlcN6P” value with glucosamine-6-phosphate [3] is below 1e-05 s⁻¹. In addition, in the data set with glucosamine-6-phosphate [5], the “self-cleavage kobs at 10000 uM GlcN6P” value is below 1e-05 s⁻¹.
As to AUAAAAGCGCCAGAACUACAGAAAUGUAGUUGACGAGGACGAGGUUUAUCAAAUUUUCGGCGGAUGCCUCCAAA, the “self-cleavage kobs at 40 uM GlcN6P” value with glucosamine-6-phosphate [1] is below 1e-05 s⁻¹. The “self-cleavage kobs at 640 uM GlcN6P” value with glucosamine-6-phosphate [3] is below 1e-05 s⁻¹. Besides, in the data set with glucosamine-6-phosphate [4], the “self-cleavage kobs at 2500 uM GlcN6P” value was below 1e-05 s⁻¹. Besides, in the data set with glucosamine-6-phosphate [5], the “self-cleavage kobs at 10000 uM GlcN6P” value is below 1e-05 s⁻¹.
